According to EP3221371B1, “MONOLITHS” (Monolythix, Inc., priority 2014, dated 2016):

Tested on: alpha-lactalbumin
Test: Monolith mediated proteolysis with covalently grafted proteinase K, HPLC
Format: biochemical
Conditions: 65 °C for 2 hrs plus 30 minutes; HPLC (Figure 4)
Procedure: 160 mg/mL EDAC stock was dissolved in dry DMSO. 35 µL of this stock was added to 15 µL of 200 mM MES pH 7.0 and 20 µL 10mg/mL Proteinase K in PBS. The solution was added to a 20 mg disc carboxy monolith polymeric matrix (1:2:1 TEGDMA:EGDMA:HEMA plus 2.0% MAA). The disc was incubated for 1 hr at room temperature. The reaction was then quenched with 5 µL of 30 mg/mL glycine, pH 7.0 for 15 minutes at room temperature. The disc was then washed 3x in 1x PBS and held in 1X PBS for 4 days at 4 °C.
Alpha-lactalbumin substrate was dissolved at 10 mg/mL in 1x PBS. The proteinase K coupled disc was cut into equal 8 pie-shaped pieces. For each assay, one pie piece was placed point side down into a 0.5 mL microfuge tube. For each tube, 27 µL 10mg/mL lactalbumin solution or 1X PBS, 3 µL 5mM CaSO4, was added. The tubes were closed and incubated at 65 °C for 2 hrs. An additional 50 µL deionized distilled water, was added, the tubes closed, and incubated at 65 °C for an additional 30 minutes.

B1: proteinase K: Proteinase K covalently grafted with EDAC to carboxy monolith disc (1:2:1 TEGDMA:EGDMA:HEMA plus 2.0% MAA) (conjugate, UniProt P06873 106-384, looked up)
Proteinase K: AAQTNAPWGLARISSTSPGTSTYYYDESAGQGSCVYVIDTGIEASHPEFEGRAQMVKTYYYSSRDGNGHGTHCAGTVGSRTYGVAKKTQLFGVKVLDDNGSGQYSTIIAGMDFVASDKNNRNCPKGVVASLSLGGGYSSSVNSAAARLQSSGVMVAVAAGNNNADARNYSPASEPSVCTVGASDRYDRRSSFSNYGSVLDIFGPGTSILSTWIGGSTRSISGTSMATPHVAGLAAYLMTLGKTTAASACRYIADTANKGDLSNIPFGTVNLLAYNNYQA
modifications: EDAC-grafted to carboxy monolith disc
degradation of alpha-lactalbumin: fully degraded
